In one data set the target is T1, IDP1 (Arabidopsis thaliana, UniProt Q9S9P3 1-634).
T1 sequence: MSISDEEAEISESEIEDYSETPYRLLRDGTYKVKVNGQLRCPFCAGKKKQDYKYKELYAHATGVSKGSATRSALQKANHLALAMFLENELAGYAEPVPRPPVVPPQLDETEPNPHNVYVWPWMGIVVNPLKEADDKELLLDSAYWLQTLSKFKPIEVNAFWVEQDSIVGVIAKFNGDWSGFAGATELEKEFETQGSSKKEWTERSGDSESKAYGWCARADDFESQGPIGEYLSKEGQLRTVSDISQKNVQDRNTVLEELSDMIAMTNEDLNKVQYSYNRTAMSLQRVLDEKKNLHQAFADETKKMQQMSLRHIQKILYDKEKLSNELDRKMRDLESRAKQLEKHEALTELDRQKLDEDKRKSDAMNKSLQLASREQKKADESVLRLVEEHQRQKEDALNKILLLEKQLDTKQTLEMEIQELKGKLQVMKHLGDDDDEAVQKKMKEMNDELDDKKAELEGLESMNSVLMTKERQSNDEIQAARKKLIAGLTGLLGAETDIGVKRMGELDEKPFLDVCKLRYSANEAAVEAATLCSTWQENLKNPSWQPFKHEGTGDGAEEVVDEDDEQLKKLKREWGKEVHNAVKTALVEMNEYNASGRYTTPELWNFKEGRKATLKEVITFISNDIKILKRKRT
The data set can be described thus: EMSA; 12.5 mM MgCl2; up to 6.4 ug protein; 25 mM HEPES pH 7.6, 50 mM KCl, 0.1 mM EDTA, 12.5 mM MgCl2, 1 mM DTT, 0.5% BSA, 5% glycerol, 2 ug protein, room temperature 30 min; 4% native PAGE. The conditions noted are these: protein: recombinant, tags: His (pET28a), label: 5'-32P. A general note: Mobility shift assays separate free from complexed probe on a gel.

Another data set has as its target T2, IDP2 (Arabidopsis thaliana, UniProt F4JH53 1-635).
T2 sequence: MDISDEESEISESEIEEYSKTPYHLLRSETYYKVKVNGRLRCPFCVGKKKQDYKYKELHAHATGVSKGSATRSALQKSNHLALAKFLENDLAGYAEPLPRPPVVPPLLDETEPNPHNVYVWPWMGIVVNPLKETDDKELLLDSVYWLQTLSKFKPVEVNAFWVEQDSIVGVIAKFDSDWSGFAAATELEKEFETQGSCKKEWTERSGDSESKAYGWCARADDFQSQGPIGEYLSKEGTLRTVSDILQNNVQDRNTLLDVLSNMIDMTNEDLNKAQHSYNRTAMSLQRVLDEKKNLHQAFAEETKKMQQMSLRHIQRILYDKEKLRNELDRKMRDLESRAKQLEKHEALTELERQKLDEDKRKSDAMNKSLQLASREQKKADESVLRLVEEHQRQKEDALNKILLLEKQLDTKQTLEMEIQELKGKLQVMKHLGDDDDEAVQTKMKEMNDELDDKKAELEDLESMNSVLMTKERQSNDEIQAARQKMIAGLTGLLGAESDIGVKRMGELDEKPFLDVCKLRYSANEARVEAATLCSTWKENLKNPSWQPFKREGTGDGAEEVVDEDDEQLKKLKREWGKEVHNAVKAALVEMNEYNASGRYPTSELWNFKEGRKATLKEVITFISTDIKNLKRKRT
The data set is described as above. The conditions noted are these: protein: recombinant, tags: His (pET28a), label: 5'-32P.

The next data set concerns the target T3, IDN2 (Arabidopsis thaliana, UniProt Q8VZ79 1-647).
T3 sequence: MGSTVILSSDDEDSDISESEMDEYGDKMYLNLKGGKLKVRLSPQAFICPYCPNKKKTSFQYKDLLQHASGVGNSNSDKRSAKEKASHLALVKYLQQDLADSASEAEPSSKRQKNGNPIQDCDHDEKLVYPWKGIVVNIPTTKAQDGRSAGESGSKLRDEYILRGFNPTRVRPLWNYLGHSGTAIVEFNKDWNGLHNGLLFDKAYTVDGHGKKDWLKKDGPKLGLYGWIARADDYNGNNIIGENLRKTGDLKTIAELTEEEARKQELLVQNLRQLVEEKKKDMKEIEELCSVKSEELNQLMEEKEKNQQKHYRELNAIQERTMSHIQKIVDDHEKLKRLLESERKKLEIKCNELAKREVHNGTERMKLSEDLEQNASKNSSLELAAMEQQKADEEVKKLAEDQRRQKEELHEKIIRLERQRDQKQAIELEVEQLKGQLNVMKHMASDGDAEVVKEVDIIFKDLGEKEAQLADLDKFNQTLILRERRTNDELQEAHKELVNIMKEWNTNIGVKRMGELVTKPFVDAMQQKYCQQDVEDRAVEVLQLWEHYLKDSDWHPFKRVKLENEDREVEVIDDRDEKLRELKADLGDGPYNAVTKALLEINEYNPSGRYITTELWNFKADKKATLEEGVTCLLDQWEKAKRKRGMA
The data set can be described thus: EMSA; 12.5 mM MgCl2; 25 mM HEPES pH 7.6, 50 mM KCl, 0.1 mM EDTA, 12.5 mM MgCl2, 1 mM DTT, 0.5% BSA, 5% glycerol, 2 ug protein, room temperature 30 min; 4% native PAGE. The conditions noted are these: protein: recombinant, tags: His (pET28a), label: 5'-32P.

A further data set addresses T4, IDN2-a (XS+coiled-coil) (Arabidopsis thaliana, UniProt Q8VZ79 1-511).
T4 sequence: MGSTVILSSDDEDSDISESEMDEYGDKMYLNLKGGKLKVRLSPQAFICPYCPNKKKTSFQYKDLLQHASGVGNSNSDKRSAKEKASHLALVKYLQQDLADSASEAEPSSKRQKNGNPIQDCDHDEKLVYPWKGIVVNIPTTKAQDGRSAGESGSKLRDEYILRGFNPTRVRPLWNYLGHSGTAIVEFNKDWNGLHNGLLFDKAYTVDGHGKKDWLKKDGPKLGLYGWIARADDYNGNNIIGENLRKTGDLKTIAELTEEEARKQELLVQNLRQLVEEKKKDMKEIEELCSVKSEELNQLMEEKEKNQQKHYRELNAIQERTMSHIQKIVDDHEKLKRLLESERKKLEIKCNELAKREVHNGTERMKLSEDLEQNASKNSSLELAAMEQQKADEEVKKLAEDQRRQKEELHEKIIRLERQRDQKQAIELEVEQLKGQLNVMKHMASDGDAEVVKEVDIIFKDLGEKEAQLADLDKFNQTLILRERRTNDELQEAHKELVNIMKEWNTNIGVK
The description is as above. To be noted: protein: recombinant, tags: His (pET30a), label: 5'-32P.

B1: RD29A dsRNA, 5' overhang (dsRNA)
RNA 1: ACGCUUCAUACGUGUCCCUUUAUCUCUCUCAGUCU
RNA 2: AGAGACUGAGAGAGAUAAAGGGACACGUAUGAAGC
As for B1, the binding result is “no binding” in the data set with IDP1 (5' overhangs 2 nt at both ends), “no binding” with IDP2 (5' overhangs 2 nt at both ends), “binds” in the data set with IDN2 (5' overhangs 2 nt at both ends) and “binds” with IDN2-a (XS+coiled-coil) (5' overhangs 2 nt at both ends).

B2: RD29A dsRNA, blunt (dsRNA)
RNA 1: ACGCUUCAUACGUGUCCCUUUAUCUCUCUCAGUCU
RNA 2: AGACUGAGAGAGAUAAAGGGACACGUAUGAAGCGU
Turning to B2, the binding result with IDP1 (blunt) is given as “no binding”; with IDP2 (blunt) it was “no binding”; in the data set with IDN2 (blunt), “binds”; with IDN2-a (XS+coiled-coil) (blunt) it was “binds”.
